Experimental data: patent publication US20220119828

Target: T1, AcTPase4xOs (enhanced, rice codon-optimized Ac transposase with SV40 NLS) (Zea mays (engineered)) (UniProt P08770)
T1 sequence (P08770 whole entry, looked up): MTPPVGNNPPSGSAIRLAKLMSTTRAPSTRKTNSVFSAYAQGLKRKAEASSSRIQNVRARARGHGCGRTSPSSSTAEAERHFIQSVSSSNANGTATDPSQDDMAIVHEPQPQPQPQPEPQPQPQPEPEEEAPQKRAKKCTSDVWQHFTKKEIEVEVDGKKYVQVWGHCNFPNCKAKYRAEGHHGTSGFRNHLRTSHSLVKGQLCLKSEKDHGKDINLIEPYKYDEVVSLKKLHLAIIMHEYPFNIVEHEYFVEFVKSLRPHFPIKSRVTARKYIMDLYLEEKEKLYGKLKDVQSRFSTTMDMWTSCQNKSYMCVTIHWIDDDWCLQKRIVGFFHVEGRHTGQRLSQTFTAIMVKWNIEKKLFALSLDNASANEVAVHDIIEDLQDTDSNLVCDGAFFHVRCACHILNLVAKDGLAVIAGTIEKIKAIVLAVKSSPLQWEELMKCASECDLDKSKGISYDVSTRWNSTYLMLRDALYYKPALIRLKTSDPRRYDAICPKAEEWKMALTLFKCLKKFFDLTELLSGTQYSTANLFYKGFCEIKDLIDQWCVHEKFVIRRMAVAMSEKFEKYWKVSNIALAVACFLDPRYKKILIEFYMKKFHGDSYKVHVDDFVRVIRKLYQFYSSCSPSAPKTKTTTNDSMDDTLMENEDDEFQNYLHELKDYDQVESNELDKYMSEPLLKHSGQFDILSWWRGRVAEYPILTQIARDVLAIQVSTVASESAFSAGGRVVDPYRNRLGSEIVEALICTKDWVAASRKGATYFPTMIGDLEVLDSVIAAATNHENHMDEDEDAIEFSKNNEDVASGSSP
Assay: cell_activity
Conditions: pZEN31E in rice callus, heat shock 42 C 90 min; 81.1% without heat shock; 0% for pZEN30NC lacking transposase

CAGGGATGAAAGTAGGATGGGAAAATCCCGTACCGACCGTTATCGTATAACCGATTTTGTTAGTTTTATCCCGATCGATTTCGAACCCGAGGTAAAAAACGAAAACGGAACGGAAACGGGATATACAAAACGGTAAACGGAAACGGAAACGGTAGAGCTAGTTTCCCGACCGTTTCACCGGGATCCCGTTTTTAATCGGGATGATCCCGTTTCGTTACCGTATTTTCTAATTCGGGATGACTGCAATATGGCCAGCTCCAACTCCCATCCATAACCACTGAGGCCCAGCCCATGTAAGAATGCTCCAGATTTATATGGATTTTATCTATGTTTAATTAAGACTTGTGTTTACAATTTTTTATATTTGTTTTTAAGTTTTGAATATATGTTTTCATGTGTGATTTTACCGAACAAAAATACCGGTTCCCGTCCGATTTCGACTTTAACCCGACCGGATCGTATCGGTTTTCGATTACCGTATTTATCCCGTTCGTTTTCGTTACCGGTATATCCCGTTTTCGTTTCCGTCCCGCAAGTTAAATATGAAAATGAAAACGGTAGAGGTATTTTACCGACCGTTACCGACCGTTTTCATCCCTA (double strand)
activity (% callus lines with excision): 95.1
